Results: PMC9900795 (bioRxiv, 2023)
Each block holds one molecule with its values, some of them ahead of it.

Assays:
Assay in all cases: pull-down
[1] = target: FL-Ndel1^PM, full-length Ndel1 with the five sites phosphorylated by CDK5 mutated to aspartic acid (UniProt Q9GZM8)
[2] = target: NT-Ndel1, truncation of Ndel1 containing only the N-terminal coiled-coil (UniProt Q9GZM8)
[3] = target: Ndel1^ΔCTCC, Ndel1 with the C-terminal coiled-coil containing the purported heavy chain-binding site deleted (UniProt Q9GZM8)
[4] = target: FL-Ndel1^PM, full-length Ndel1 with the five sites phosphorylated by CDK5 mutated to aspartic acid (UniProt Q9GZM8); remark: listed apart in the source
[5] = target: T1, Lis1 (UniProt P43034 1-410)
T1 sequence: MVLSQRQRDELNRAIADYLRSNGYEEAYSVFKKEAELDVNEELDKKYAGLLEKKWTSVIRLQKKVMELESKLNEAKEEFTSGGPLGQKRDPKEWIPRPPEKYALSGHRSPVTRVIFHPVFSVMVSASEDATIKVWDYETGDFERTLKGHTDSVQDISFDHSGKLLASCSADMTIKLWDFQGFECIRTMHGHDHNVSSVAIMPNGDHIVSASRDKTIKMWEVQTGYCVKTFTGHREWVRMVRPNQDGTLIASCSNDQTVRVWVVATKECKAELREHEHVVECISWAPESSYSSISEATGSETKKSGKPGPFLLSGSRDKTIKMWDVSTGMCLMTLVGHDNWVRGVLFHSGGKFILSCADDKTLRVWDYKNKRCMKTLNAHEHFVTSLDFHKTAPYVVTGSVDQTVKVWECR

- fold higher affinity than FL-Ndel1 [1]: 2 fold
- Kd [2]: 79 nM
- Kd [3]: 55 nM
Molecule: SNAP-tagged, recombinant full-length human dynein with all associated accessory chains (from UniProt Q14204;O43237;P63172;Q9NP97;P63167) (complex)

- Kd [4]: 4 nM
B1: Lis1 (natural protein)
chain: T1 sequence

- Kd [5]: ~1.2 nM
B2: NT-Ndel1, truncation of Ndel1 containing only the N-terminal coiled-coil (domain or fragment)
chain: MDGEDIPDFSSLKEETAYWKELSLKYKQSFQEARDELVEFQEGSRELEAELEAQLVQAEQRNRDLQADNQRLKYEVEALKEKLEHQYAQSYKQVSVLEDDLSQTRAIKEQLHKYVRELEQANDDLERAKRATIVSLEDFEQRLNQAIERNAFLESELDEKESLLVSVQRLKDEARDLRQELAVRERQQEVTR

- Kd [5]: ~4 nM
B3: full-length Ndel1 (FL-Ndel1), HaloTag at the N-terminus and 6X-His tag at the C-terminus (natural protein)
chain: MDGEDIPDFSSLKEETAYWKELSLKYKQSFQEARDELVEFQEGSRELEAELEAQLVQAEQRNRDLQADNQRLKYEVEALKEKLEHQYAQSYKQVSVLEDDLSQTRAIKEQLHKYVRELEQANDDLERAKRATIVSLEDFEQRLNQAIERNAFLESELDEKESLLVSVQRLKDEARDLRQELAVRERQQEVTRKSAPSSPTLDCEKMDSAVQASLSLPATPVGKGTENTFPSPKAIPNGFGTSPLTPSARISALNIVGDLLRKVGALESKLAACRNFAKDQASRKSYISGNVNCGVLNGNGTKFSRSGHTSFFDKGAVNGFDPAPPPPGLGSSRPSSAPGMLPLSV
